Experimental data as given in the supplement of paper PMC10567573.
± gives the standard deviation.

Assay: protein stability index of a GFP-peptide fusion (GPS, HEK-293T) (PSI 1-6); higher = more stable
Conditions: c terminus: a fixed tail appended
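Also: 24-mer peptide tiles fused after GFP, lentivirally expressed, FACS-sorted into six equal bins by GFP/DsRed ratio, decoded by Illumina sequencing, PSI is the read-weighted mean bin number.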

Sequence	protein stability index (treatment: DMSO)	protein stability index (treatment: MLN4924 1 uM, 8 h)
RQIVSGLKYLHEQEILHRDLKLGN [PLK2]	2.52 ± 0.21	2.7 ± 0.48
METHKELKPLLSPSSETTVTVELP [LYSMD4]	4.77 ± 0.16	5.06 ± 0.083
SRRREQSSSRNSHLVQHQHPNSRK [ZNF8]	5.14 ± 0.46	5.41 ± 0.075
NIVNLLTTCSTPLLNSPPSFVCWS [AUP1]	3.2 ± 0.56	2.78 ± 0.47
QDFNTMFTNCYIYNKPTDDIVLMA [BRD3]	2.12 ± 0.28	2.23 ± 0.25
LVSPERAQPPDYTFPSGSGAHFPQ [PI4K2A]	3.96 ± 0.3	4.13 ± 0.25
ETLITTIDSSSSWWTNWVIPAISA [CYB5A]	2.47 ± 0.63	2.48 ± 0.49
LNELPVPMVARYIRINPQSWFDNG [CPXM2]	2.21 ± 0.42	2.43 ± 0.28
YRFLLYGLHEGKRLGPLSAEGTTG [TNXB]	2.8 ± 0.62	2.29 ± 0.31
TSSAKVDMTFEEEAQLLQLKVKCL [FKBP8]	3.48 ± 0.28	3.54 ± 0.33
TADEIPMEPGDIIGVAGNHWDGYS [FUT8]	4.21 ± 0.32	4.16 ± 0.23
VKSNTEQMREAFATAFSKLKPESS [ZBED1]	4.34 ± 0.24	4.27 ± 0.18
GPSNTSHSSSRDSHLSNGLDPVAE [C2CD2L]	5.337 ± 0.041	5.23 ± 0.089
QDPQLHSPFSGSLHAPPAFYSTSS [VENTX]	3.65 ± 0.2	3.75 ± 0.28
VLSLKEGAREEDLDAVEAQIGCKL [FBXO3]	5.24 ± 0.49	4.6 ± 0.25
PPTSPEPPRSSPRQTPAPGPAREK [CEBPD]	–	5.62 ± 0.089
IFQEQQKKWQQYRSVRRERLKEMK [FAM9B]	3.22 ± 0.29	3.22 ± 0.39
SLRKGASLSNGQGSRVLHVVQTLY [NCK2]	2.29 ± 0.26	2.57 ± 0.11
SIQWPGKRSSRRVQRHNSFSPNSP [NECAB1]	3.54 ± 0.27	3.62 ± 0.23
IESKIPLNMEEPPVEEPEPKPDRL [SLC19A2]	5.36 ± 0.24	5.57 ± 0.12
EERVRVLQGVRLSENVVNRMKEPS [CHCHD6]	4.6 ± 0.51	4.64 ± 0.19
IRDFEARKCPVHGKTMELFCQTDQ [TRIM29]	3.54 ± 0.28	3.76 ± 0.28

Sequence	protein stability index (treatment: DMSO)	protein stability index (treatment: MLN4924 1 uM, 8 h)
ANETLAEMEEELRYAPLSFRNPMM [VTI1B]	2.42 ± 0.63	3.01 ± 0.56
ASMSPDATKPSHWCSVAYWEHRTR [SMAD6]	2.84 ± 0.24	2.87 ± 0.27
GARPPPTPPASPPPSVLISKNEVG [KMT2E]	4.91 ± 0.12	5.08 ± 0.18
AIFDAGTLGGELGALEALELSPPL [FOXJ1]	3.26 ± 0.23	3.31 ± 0.31
CHLNGIVHRDLKPENLLLASKSKG [CAMK2D]	3.52 ± 0.36	3.56 ± 0.19
KKIYAMGGGSYGKLFESVECYDPR [GAN]	2.94 ± 0.24	2.99 ± 0.17
PEEPSAEDSINNSLVQLQASHQQQ [MYBL2]	5.62 ± 0.18	5.55 ± 0.16
GYVANSSNCISGVCSVRGGEGRSR [KRT71]	3.47 ± 0.2	3.73 ± 0.43
RSAMSGASQPRGPALLFPATRGVP [TRIB1]	3.554 ± 0.019	4.14 ± 0.29
FQDKRNLYLIMEFLPGGDMMTLLM [STK38L]	3.34 ± 0.31	–
VKVTFNKQDSLVILTIMATLKIRN [TMEM106C]	2.92 ± 0.53	2.89 ± 0.32
LDKQAKLSRAYDGTTYLPGIVGLN [USP39]	3.15 ± 0.39	3.1 ± 0.2
EPYARLPPHKHVARPTEVLAGTQL [TRIB3]	4.05 ± 0.1	3.88 ± 0.28
CPKYKFISCPTCRRETVLFTDYGL [RNF208]	2.28 ± 0.25	2.25 ± 0.21
ASPSSSVRLGSFRSPRAGAGALLR [PRPH]	3.65 ± 0.26	3.81 ± 0.19
CHLAHELRLSCMERKKVQIRSMDP [DCAF4]	2.39 ± 0.25	2.42 ± 0.2
ILVYDIANRWSFEGMDRWIKKIEE [RAB40A]	2.43 ± 0.38	2.34 ± 0.16
CQQEQLFQTRQEMTSMSAELKMRA [LRRC45]	3.03 ± 0.42	3.1 ± 0.21
VDRCGASVEAGGSVHFDGETIEGA [FEM1A]	4.87 ± 0.24	4.92 ± 0.18
VLYTDKTYAMGHLIQRKKVHVFGD [TNFSF13B]	2.28 ± 0.14	2.51 ± 0.41
ESRALSTSSNLGSQYQCENGVSGP [TBX5]	4.95 ± 0.25	5.06 ± 0.21
TRTAEPAESSVPPVTSIGIDNLGL [SLC35F2]	4.48 ± 0.27	4.49 ± 0.11

Sequence	protein stability index (treatment: DMSO)	protein stability index (treatment: MLN4924 1 uM, 8 h)
TAEAEELKPFFMKEVGSHFDDFVT [SOAT1]	3.91 ± 0.25	3.94 ± 0.34
IPERLSIFCRDTQTVFQKKNLQQT [IQUB]	2.87 ± 0.19	2.98 ± 0.51
LKSKAEAEALYQTKFQELQLAAGR [KRT71]	3.73 ± 0.22	3.85 ± 0.41
LTKYPTDRDSIWKCLKFLGSRHPT [INTS4]	2.38 ± 0.19	2.39 ± 0.095
GCFTLPRSEPIRPIDPAAWVSHTA [DVL3]	2.81 ± 0.25	3 ± 0.42
KKALSGLSSRWKNWWIRGILTLTM [CDS1]	2.14 ± 0.091	2.22 ± 0.19
ELNGHTQKITAIITFPSLESCEEK [WDR41]	3.1 ± 0.29	3.42 ± 0.42
YRQWHAKIFVENLRRQKSLRLEWE [IQUB]	2.29 ± 0.54	1.87 ± 0.28
QTSAFARQPRDELERVRVSCTIIF [TMEM175]	2.46 ± 0.55	2.62 ± 0.61
RSKESKDCSGLVLLCLFFGIPWEA [PCDHGA10]	3.15 ± 0.37	2.48 ± 0.61
VRSQTLPRTSEAQARKALFEKWEQ [SMTNL2]	3.98 ± 0.28	4.16 ± 0.47
LTGLNYEAPKYHIPYWVAYYLALL [NSDHL]	2.71 ± 0.59	2.87 ± 0.48
HQRTHSEEETYKCLECGKSFCHGS [ZNF449]	4.63 ± 0.3	4.59 ± 0.3
HCAAVTPAGCMYIHGGVVNIHENK [KLHDC10]	2.86 ± 0.098	3.12 ± 0.49
YVKVLHHMVKISGGPRISYPLLHE [MAGEA6]	2.68 ± 0.52	2.41 ± 0.5
MARNPAAIDMFIIGATFTDWFTSY [FBXO3]	3.1 ± 0.62	2.84 ± 0.57
ELKTKLTKLEAEIVTLRHVLAAKE [TPD52L3]	3.44 ± 0.27	3.64 ± 0.23
IDKKPVSEKTDESDTIPYLKKFLY [MIA2]	2.83 ± 0.57	2.95 ± 0.4
KCYLNGVKVPGIVRLRTLLCKVLG [CLCN6]	2.93 ± 0.43	2.77 ± 0.36
PNNSCYSAGIAKLEEGDELQLAIP [TNFSF13B]	4.55 ± 0.12	4.59 ± 0.29
MATQADLMELDMAMEPDRKAAVSH [CTNNB1]	4.78 ± 0.19	4.95 ± 0.15
